Like-named read-outs stand apart in the source and are kept apart here.
How the values were obtained:
[1] = tested on: patients with newly diagnosed breast cancer receiving doxorubicin and cyclophosphamide; experiment: Phase I/II dose escalation study of AII(1-7) before and after chemotherapy (Example 5); conditions: in vivo
[2] = tested on: mice injected with 150 mg/kg 5FU intravenously (WBC, platelets, hemoglobin); experiment: Effect of angiotensin fragments and ACE inhibitor on recovery after chemotherapy (Example 4); assay type: in vivo; conditions: after i.v. 5FU
Method: The next study was designed to test the effect of angiotensin peptides and the angiotensin converting enzyme inhibitor, enalapril, on recovery of white blood cells, platelets and hemoglobin after chemotherapy, as well as on granulocyte-macrophage colony forming units (GM-CFU) in the blood and bone marrow.
Female […] mice (4 per group), 6-8 weeks old, were injected with 150 mg/kg 5FU intravenously. Administration of the peptides (AII (100 μg/kg/day), AII(1-7) (10 or 100 μg/kg/day), AII(1-5) (10 or 100 μg/kg/day), and AII(1-6) (100 μg/kg/day)), by subcutaneous injection, or enalapril (30 mg/kg/day) by oral gavage, was begun 2 days after administration of the antineoplastic and continued daily until 28 days after 5FU administration, at which time the mice were euthanized for evaluation of white blood cell numbers, platelets, hemoglobin levels and the number of GM-CFU in the bone marrow and peripheral blood. On days 7, 10, 14 and 21 after 5FU administration, blood was taken under anesthesia from the retro-orbital sinus to assess white blood cell number, platelet number, and hemoglobin levels.
The mice were bled from the retro-orbital sinus at days 7, 10, 14 and 21. The mice were anesthetized with Metofane (an inhaled anesthesia). Approximately 150-200 μl of blood were obtained from the retro-orbital sinus with a heparinzed capillary tube. The blood was then placed in a 1.7 ml microfuge tube containing 10 mM EDTA and held on ice until further processing.
One hundred μl of blood was pipetted into a centrifuge tube, to which 900 μl of distilled water was added. The blood and water were mixed by inversion and allowed incubate at 4° C. for 20 minutes. The tube was then centrifuged at 12000 rpm to precipitate the cellular debri for 20 to 30 minutes at room temperature. Twenty μl of the supernatant from this centrifugation was then added into triplicate wells of a 96 well plate containing 180 μl of distilled water. The optical density, was then read using a microplate reader at […].
Twenty μl of blood was mixed with 200 μl of red blood cell (RBC) lysing solution (0.83% NH4Cl, 10 mM EDTA, 0.5% NaHCO3). The mixture was then incubated for 10 minutes at 4° C. After this incubation, the supernatant was removed and the pellet was resuspended in 100 μl of PBS. To this, 100 μl of 0.04% trypan blue was added. This mixture was vortexed and the number of WBC (baseline was approximately 10^7 cells/ml) was evaluated by hematocytometer under light microscopy and the number: of platelets (baseline was approximately 2.5×10^8 platelets/ml) was evaluated by hematocytometer under phase contrast microscopy.
The blood was harvested by cardiac puncture on day 10 to assess mobilization of myeloid progenitors into the peripheral blood. The femurs and tibia were also collected and the bone marrow was harvested by flushing with PBS containing 2% fetal calf serum. After collection of the blood and bone marrow, the red blood cells were lysed with a hypotonic solution (described above), mixed with 0.04% trypan blue, and the number of nucleated cells assessed by hematocytometer under light microscopy. Aliquots of cells were then resuspended at 1×10^5 cells/ml (bone marrow) or 1×10^6 cells/ml Flood). […]

[3] = animal daily doses 10 to 1,000 μg/kg for 30 days; human 2.5 to 100 μg/kg/day
Method: Based upon safety evaluation studies in animals (where the daily doses tested ranged from 10 to 1,000 μg/kg for 30 days) and the pharmacology profile of, AII(1-7), the dose range used in humans ranged from 2.5 to 100 μg/kg/day over at least 10 days.

[4] = tested on: patients with newly diagnosed breast cancer receiving doxorubicin and cyclophosphamide
[5] = tested on: female C57B1/6 mice treated with 200 mg/kg cytoxan

Asp-Arg-Val-Tyr-Ile-His-Pro [AII(1-7)]
drug related serious adverse events [1]: No drug related serious adverse events | safety (summary) [1]: safe without observed dose limiting toxicities | platelets after administration [2]: increase in platelets | safety margin of human dose range over the animal exposures [3]: 9-10 fold | change in platelet number ([4]; 50 μg/kg/day AII(1-7)): only day 12 showed any change in platelet number | dose-limiting toxicities ([4]; 2.5 to 100 μg/kg/d): No dose-limiting toxicities | Toxicity: ANC < 1000/μl (frequency) ([4]; AII(1-7) 2.5 μg/kg): 100% | Toxicity: Hgb < 10 gm/dl (frequency) ([4]; AII(1-7) 2.5 μg/kg): 66% | Toxicity: Lymph < 500/μl (frequency) ([4]; AII(1-7) 2.5 μg/kg): 66% | Toxicity: Platelet < 80 K/μl (frequency) ([4]; AII(1-7) 2.5 μg/kg): 0% | Toxicity: WBC < 2000/μl (frequency) ([4]; AII(1-7) 2.5 μg/kg): 66% | Toxicity: ANC < 1000/μl (frequency) ([4]; AII(1-7) 10 μg/kg): 100% | Toxicity: Hgb < 10 gm/dl (frequency) ([4]; AII(1-7) 10 μg/kg): 33% | Toxicity: Lymph < 500/μl (frequency) ([4]; AII(1-7) 10 μg/kg): 33% | Toxicity: Platelet < 80 K/μl (frequency) ([4]; AII(1-7) 10 μg/kg): 0% | Toxicity: WBC < 2000/μl (frequency) ([4]; AII(1-7) 10 μg/kg): 66% | Toxicity: ANC < 1000/μl (frequency) ([4]; AII(1-7) 50 μg/kg): 100% | Toxicity: Hgb < 10 gm/dl (frequency) ([4]; AII(1-7) 50 μg/kg): 0% | Toxicity: Lymph < 500/μl (frequency) ([4]; AII(1-7) 50 μg/kg): 33% | Toxicity: Platelet < 80 K/μl (frequency) ([4]; AII(1-7) 50 μg/kg): 0% | Toxicity: WBC < 2000/μl (frequency) ([4]; AII(1-7) 50 μg/kg): 66% | Toxicity: ANC < 1000/μl (frequency) ([4]; AII(1-7) 75 μg/kg): 100% | Toxicity: Hgb < 10 gm/dl (frequency) ([4]; AII(1-7) 75 μg/kg): 0% | Toxicity: Lymph < 500/μl (frequency) ([4]; AII(1-7) 75 μg/kg): 0% | Toxicity: Platelet < 80 K/μl (frequency) ([4]; AII(1-7) 75 μg/kg): 0% | Toxicity: WBC < 2000/μl (frequency) ([4]; AII(1-7) 75 μg/kg): 100% | Toxicity: ANC < 1000/μl (frequency) ([4]; AII(1-7) 100 μg/kg): 100% | Toxicity: Hgb < 10 gm/dl (frequency) ([4]; AII(1-7) 100 μg/kg): 0% | Toxicity: Lymph < 500/μl (frequency) ([4]; AII(1-7) 100 μg/kg): 0% | Toxicity: Platelet < 80 K/μl (frequency) ([4]; AII(1-7) 100 μg/kg): 0% | Toxicity: WBC < 2000/μl (frequency) ([4]; AII(1-7) 100 μg/kg): 33% | platelets ([4]; across doses): dose-dependent increase in platelets | restoration of hemoglobin prior to the next cycle ([4]; all doses): restoration of hemoglobin prior to the next cycle was observed | over-production of formed blood elements ([4]; before or after chemotherapy): No over-production of formed blood elements | Alopecia (frequency by treatment group) ([4]; chemotherapy patients): 46% | Anemia (frequency by treatment group) ([4]; chemotherapy patients): 7% | Fatigue (frequency by treatment group) ([4]; chemotherapy patients): 93% | Headache (frequency by treatment group) ([4]; chemotherapy patients): 26% | Myalgia/Muscle-skeletal pain (frequency by treatment group) ([4]; chemotherapy patients): 53% | Nausea (frequency by treatment group) ([4]; chemotherapy patients): 93% | Stomatitis (frequency by treatment group) ([4]; chemotherapy patients): 40% | Vomiting (frequency by treatment group) ([4]; chemotherapy patients): 80% | frequency of grade 2-4 anemia ([4]; compared to filgrastim): reduced the frequency | frequency of grade 2-4 thrombocytopenia ([4]; compared to filgrastim): reduced the frequency | frequency of grade 3-4 lymphopenia ([4]; compared to filgrastim): reduced the frequency | late neutrophil recovery ([4]; compared to filgrastim): enhanced compared to filgrastim | synergy between filgrastim and AII(1-7) ([4]; following 10-12 days of AII(1-7), as little as 1 dose of filgrastim normalizes the neutrophil count): possible synergy | ability to maintain on cycle, full intensity chemotherapy ([4]; in vivo): permitted the patients to maintain full intensity chemotherapy on cycle | cycle delays due to neutropenia ([4]; in vivo): No cycle delays due to neutropenia | dose at which anemia correction with each cycle was observed ([4]; in vivo): ≥ 2.5 µg/kg | dose intensity of chemotherapy received by all study patients ([4]; in vivo): 100% | doses that appear to be active ([4]; in vivo): greater than 10 μg/kg/day | hematopoietic lineages ([4]; in vivo): increase in multiple hematopoietic lineages | level of nadir in number of white blood cells and absolute neutrophil count and time to these nadirs ([4]; in vivo): dose dependent increase | mobilization of hematopoietic progenitors into the peripheral blood ([4]; in vivo): mobilization of hematopoietic progenitors into the peripheral blood | neutrophil nadirs ([4]; in vivo): not affected | optimal dosage range ([4]; in vivo): 50 to 75 µg/kg/day | recovery towards baseline in formed blood elements ([4]; in vivo): improves the recovery towards baseline in all formed blood elements | day of nadir in platelet number ([4]; lowest dose of AII(1-7)): 12 days | hemoglobin after chemotherapy ([4]; lowest dose of AII(1-7)): reduction in hemoglobin was observed | hemoglobin level by the next cycle ([4]; lowest dose of AII(1-7)): returned to baseline levels by the next cycle | change in platelet number ([4]; next higher dose than 50 μg/kg/day): no decrease in platelet number occurred | reduction of the frequency of stomatitis ([4]; of that observed with filgrastim treatment): 30% | doses of filgrastim needed at day 15 to treat grade 4 neutropenia ([4]; patients treated at 2.5 and 10 μg/kg AII(1-7)): 1-2 doses | acute effect on blood pressure following administration ([4]; patients with or without a history of hypertension): No acute affect on blood pressure | frequency of headache, muscle pain and alopecia ([4]; relative to historical numbers and filgrastim controls): decreasing the frequency | anemia ([4]; subsequent dose increases of AII(1-7)): slight to no anemia | number of GM-CFU in the bone marrow ([5]; 100 μg/kg/day, started 2 days prior to cytoxan): slightly reduced | number of myeloid progenitor cells in the bone marrow ([5]; administration initiated 2 days after chemotherapy): increased the number of myeloid progenitor cells in the bone marrow | number of myeloid progenitors in the peripheral blood ([5]; administration initiated after cyclophosphamide treatment): increased the number of myeloid progenitors in the peripheral blood | recovery of WBC after intravenous cyclophosphamide ([5]; s.c. treatment initiated two days after the chemotherapeutic): accelerated the recovery of WBC | time after cyclophosphamide at which increase in WBC number was observed ([5]; treatment initiated two days after cyclophosphamide): ≤ 9 days | WBC number compared with control ([5]; treatment initiated two days prior to cyclophosphamide, starting on day 14): decrease in WBC number compared with control
